Laboratory results: patent US20090118167A1, “Selective Vpac2 Receptor Peptide Agonists” (Eli Lilly and Company Patent Division, priority 2004, published 2009)
Marks after values point to notes of the source that are not given here. Square brackets hold non-standard residues; d marks the D form. Ends that are not written are not given here. Nle = CCCC[C@H](N)C(=O)O; Orn = NCCC[C@H](N)C(=O)O; Aib = CC(C)(N)C(=O)O

Key:
human VPAC1 = target: T1, human VPAC1 (Homo sapiens, UniProt P32241); assay: Filter binding assay, 125I-labeled VIP tracer; conditions: membranes from cells transiently transfected with human VPAC1; read-out: Human receptor binding IC50 VPAC1
T1 construct: expressed in transfected cells
T1 sequence (P32241 31-457): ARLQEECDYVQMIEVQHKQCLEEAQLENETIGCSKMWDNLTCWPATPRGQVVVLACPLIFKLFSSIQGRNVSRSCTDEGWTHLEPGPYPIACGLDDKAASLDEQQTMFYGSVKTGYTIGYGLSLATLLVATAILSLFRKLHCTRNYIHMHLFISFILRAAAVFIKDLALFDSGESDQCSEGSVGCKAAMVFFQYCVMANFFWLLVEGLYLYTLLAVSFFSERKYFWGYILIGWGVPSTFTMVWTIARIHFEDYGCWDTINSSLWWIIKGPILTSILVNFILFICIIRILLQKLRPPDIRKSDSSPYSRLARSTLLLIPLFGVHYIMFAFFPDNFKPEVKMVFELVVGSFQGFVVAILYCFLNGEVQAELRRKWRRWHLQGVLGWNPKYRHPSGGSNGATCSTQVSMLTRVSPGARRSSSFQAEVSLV
Description: (§1) In order to prepare the filter plates, the presoak solution is aspirated by vacuum filtration. The plates are flushed twice with 200 μL flush buffer. 200 μL blocking buffer is added to the filter plate. The filter plate is then incubated with 200 μL presoak solution for 1 hour at room temperature.
(§2) The assay plate is filled with 25 μL assay buffer, 25 μL membranes (2.5 μg) suspended in assay buffer, 25 μL compound (agonist) in assay buffer, and 25 μL tracer (about 40000 cpm) in assay buffer. The filled plate is incubated for 1 hour with shaking.
(§3) The transfer from assay plate to filter plate is conducted. The blocking buffer is aspirated by vacuum filtration and washed two times with flush buffer. 90 μL is transferred from the assay plate to the filter plate. The 90 μL transferred from assay plate is aspirated and washed three times with 200 μL flush buffer. The plastic support is removed. It is dried for 1 hour at 60° C. 30 μL Microscint is added. The count is performed.
(§4) Values reported are single results or the mean of two or more independent runs.

Normal Wistar rats = assay: Intravenous glucose tolerance test (IVGTT); assay type: in vivo, rat
Description: Intravenous glucose tolerance test (IVGTT): Normal Wistar rats are fasted overnight and are anesthetized prior to the experiment. A blood sampling catheter is inserted into the rats. The compound is given in the jugular vein. Blood samples are taken from the carotid artery. A blood sample is drawn immediately prior to the injection of glucose along with the compound. After the initial blood sample, glucose mixed with compound is injected intravenously (i.v.). Compound may also be injected intravenously or subcutaneously prior to the glucose challenge. A glucose challenge of 0.5 g/kg body weight is given, injecting a total of 1.5 mL vehicle with glucose and agonist per kg body weight. The peptide concentrations are varied to produce the desired dose in μg/kg. Blood samples are drawn at 2, 4, 6 and 10 minutes after giving glucose. The control group of animals receives the same vehicle along with glucose, but with no compound added. In some instances, a 30 minute post-glucose blood sample is drawn. Aprotinin is added to the blood sample (250-500 kIU/ml blood). The serum is then analyzed for glucose and insulin using standard methodologies.
The assay uses a formulated and calibrated peptide stock in PBS. Normally, this stock is a prediluted 100 μM stock. However, a more concentrated stock with approximately 1 mg agonist per mL is used. The specific concentration is always known. Variability in the maximal response is mostly due to variability in the vehicle dose.

[1] = rat, in vivo, sc, 0.1 mg/kg
Description: Healthy Fisher 344 rats (3 animals per group) are injected with 100 μg compound/kg (compound amount based on peptide content and dissolved in PBS buffer). […] PK parameters are then calculated using a model-independent method (WinNonlin Pro, Pharsight Corp., Mountain View, Calif., USA).

human PAC1 = target: T2, human PAC1 (Homo sapiens, UniProt P41586); assay: Filter binding assay, 125I-labeled PACAP-27 tracer; conditions: membranes from cells transiently transfected with human PAC1; read-out: Human receptor binding IC50 PAC1
T2 construct: expressed in transfected cells; membranes)
T2 sequence (P41586 21-468): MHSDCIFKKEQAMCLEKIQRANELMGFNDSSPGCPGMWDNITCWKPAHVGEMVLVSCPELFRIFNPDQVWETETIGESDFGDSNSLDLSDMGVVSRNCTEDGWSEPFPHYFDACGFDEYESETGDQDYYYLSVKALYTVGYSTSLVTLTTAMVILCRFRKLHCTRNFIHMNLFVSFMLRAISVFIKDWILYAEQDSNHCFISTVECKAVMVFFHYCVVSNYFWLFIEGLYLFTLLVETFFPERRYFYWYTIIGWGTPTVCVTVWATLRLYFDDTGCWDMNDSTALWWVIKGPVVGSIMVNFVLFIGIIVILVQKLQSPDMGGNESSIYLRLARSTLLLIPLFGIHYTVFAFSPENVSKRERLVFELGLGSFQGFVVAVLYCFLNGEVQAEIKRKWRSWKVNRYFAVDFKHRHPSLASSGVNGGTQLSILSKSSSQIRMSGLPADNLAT
Description: as §1, §2, §3, §4

Substance: P201: cyclic PEGylated VPAC2 receptor peptide agonist; P200 reacted with methoxy-PEG2-MAL-40K (HSDAVFTENYTKLRKQ[Nle]AAKKYLNDLKKGGPSSGAPPPC(methoxy‑PEG2‑MAL‑40K); ends and bridges not checked; also: cyclic, bridge kind and places not given here) [Agonist P201]
- IC50 (human VPAC1): > 3000 nM
- % increase AUC (insulin, 0-10 min after glucose) (Normal Wistar rats; Dose 10 μg/kg iv, 0 h between glucose & compound): +146%
- % increase AUC (insulin, 0-10 min after glucose) (Normal Wistar rats; Dose 10 μg/kg iv, 4 h between glucose & compound): +104%
- % increase AUC (insulin, 0-10 min after glucose) (Normal Wistar rats; Dose 30 μg/kg iv, 4 h between glucose & compound): +191%
- % increase AUC (insulin, 0-10 min after glucose) (Normal Wistar rats; Dose 100 μg/kg iv, 4 h between glucose & compound): +183%
- % increase AUC (insulin, 0-10 min after glucose) (Normal Wistar rats; Dose 300 μg/kg, given subcutaneously, 24 h between glucose & compound): +209%
- % increase AUC (insulin, 0-10 min after glucose) (Normal Wistar rats; Dose was 90 μg/kg (column 100 μg/kg), given subcutaneously, 24 h between glucose & compound): +89** %
- AUC0-last [1]: 8101 ng·h/mL
- Cl/F [1]: 0.2 mL/min/kg
- Vd/F [1]: 0.214 L/kg

Substance: P239: cyclic PEGylated VPAC2 receptor peptide agonist (HSDAVFTENYTKLRKQ[Nle]AAKKYLNDLKQGGPSSGAPPPC; not fully specified (residue 39); ends and bridges not checked; also: cyclic, bridge type and places not given here, PEGylated, site not placed) [Agonist P239]
- IC50 (human VPAC1): > 3000 nM
- IC50 (human PAC1): > 25000 nM

Substance: P255: cyclic PEGylated VPAC2 receptor peptide agonist (HSDAVFTENYTKL[Aib]KQ[Nle]AAKKYLNDLKQGGPSSGAPPPC; not fully specified (residue 39); ends and bridges not checked; also: cyclic, bridge type and places not given here, PEGylated, site not placed) [Agonist P255]
- IC50 (human VPAC1): > 3000 nM
- IC50 (human PAC1): > 25000 nM
- AUC0-last [1]: 5797 ng·h/mL
- Cl/F [1]: 0.283 mL/min/kg
- Vd/F [1]: 0.389 L/kg

Substance: P257: cyclic PEGylated VPAC2 receptor peptide agonist (HSDAVFTENYTKL[Aib]KQ[Nle]AAKKYLNDLKKGGPSSGAPPPC; not fully specified (residue 39); ends and bridges not checked; also: cyclic, bridge type and places not given here, PEGylated, site not placed) [Agonist P257]
- IC50 (human VPAC1): > 25000 nM
- IC50 (human PAC1): > 3000 nM
- % increase AUC (insulin, 0-10 min after glucose) (Normal Wistar rats; Dose 0.5 μg/kg, 10 min between glucose and compound): +14%
- % increase AUC (insulin, 0-10 min after glucose) (Normal Wistar rats; Dose 5 μg/kg, 10 min between glucose and compound): +114%
- % increase AUC (insulin, 0-10 min after glucose) (Normal Wistar rats; Dose 15 μg/kg, 10 min between glucose and compound): +158%
- % increase AUC (insulin, 0-10 min after glucose) (Normal Wistar rats; Dose 50 μg/kg, 10 min between glucose and compound): +230%
- AUC0-last [1]: 4396 ng·h/mL
- Cl/F [1]: 0.383 mL/min/kg
- Vd/F [1]: 0.425 L/kg

Substance: P274: cyclic PEGylated VPAC2 receptor peptide agonist (HSDAVFTENYTKL[Aib]KQ[Nle]AAKKYLNDLKQKGGPSSGAPPPC; not fully specified (residue 40); ends and bridges not checked; also: cyclic, bridge type and places not given here, PEGylated, site not placed) [Agonist P274]
- IC50 (human VPAC1): > 3000 nM
- IC50 (human PAC1): > 25000 nM

Substance: P277: cyclic PEGylated VPAC2 receptor peptide agonist (HSDAVFTENYTKLRKQ[Nle]AAKKYLNDLKQGGPSSGAPPPC; ends and bridges not checked; also: cyclic, bridge type and places not given here, PEGylated, site not placed) [Agonist P277]
- IC50 (human VPAC1): > 3000 nM
- IC50 (human PAC1): > 25000 nM

Substance: P279: cyclic PEGylated VPAC2 receptor peptide agonist (HSDAVFTENYTKLR[Aib]Q[Nle]AAKKYLNDLKKGGPSSGAPPPC; not fully specified (residue 39); ends and bridges not checked; also: cyclic, bridge type and places not given here, PEGylated, site not placed) [Agonist P279]
- IC50 (human VPAC1): > 3000 nM
- IC50 (human PAC1): > 25000 nM

Substance: P348: cyclic PEGylated VPAC2 receptor peptide agonist (HSDAVFTENYTKLR[Aib]Q[Nle]AAKKYLNDLK[Aib]KGGPSSGAPPPC; not fully specified (residue 40); ends and bridges not checked; also: cyclic, bridge type and places not given here, PEGylated, site not placed) [Agonist P348]
- IC50 (human VPAC1): > 1500 nM
- IC50 (human PAC1): > 25000 nM
- AUC0-last [1]: 1007 ng·h/mL
- Cl/F [1]: 1.5 mL/min/kg
- Vd/F [1]: 2.224 L/kg

Substance: P376: cyclic PEGylated VPAC2 receptor peptide agonist (HSDAVFTENYT[Orn]LR[Aib]Q[Nle]AA[Orn]KYLNDL[Orn][Orn]GGPSSGAPPPC; also: cyclic, bridge type and places not given here, PEGylated, site not placed) [Agonist P376]
- IC50 (human VPAC1): > 3000 nM
- IC50 (human PAC1): > 25000 nM

Substance: P463: cyclic PEGylated VPAC2 receptor peptide agonist (HSDAVFTENYT[Orn]LR[Aib]Q[Nle]AA[Orn]KYLNDL[Orn][Orn]GGPSSGAPPPC; also: cyclic, bridge type and places not given here, PEGylated, site not given here) [Agonist P463]
- IC50 (human VPAC1): > 3000 nM
- IC50 (human PAC1): > 25000 nM
